Patent US20260234206A1

Tests used:
calmodulin [1] = biological target: calmodulin (UniProt P0DP23); assay: SPR, CaM immobilised, SXkmer A injected, BiaEvaluate fit
calmodulin [2] = biological target: calmodulin (UniProt P0DP23); assay: microscale thermophoresis, labelled SXkmer A with free calmodulin in solution

Loop calmodulin binder SXkmer A (KMRPGVN) (designed binder)
koff (calmodulin [1]): 1e-06 s⁻¹
Kd (calmodulin [2]): 0.14 µM
